# The supplement of paper PMC9112550, “Optimization of the antimicrobial peptide Bac7 by deep mutational scanning” (BMC Biology, 2022)
# Test system: Escherichia coli TOP10
# Experiment: shrunken log2 fold change of peptide-encoding DNA abundance (4.5 h post-induction vs induction); higher = less antimicrobial activity (less host growth inhibition)
# Conditions: time post-induction: 4.5 h; library: site-saturation at positions 5, 18, 19, 20
# 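Note: peptides expressed intracellularly from a pBAD plasmid library in pooled LB shake-flask culture, induced with 0.3% L-arabinose, DNA abundance read by NGS, three biological replicates, DESeq2 with apeglm shrinkage.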
row,Sequence,shrunken log2 fold change
1,RRIRKRPPRLPRPRPRPEFVPRP,0.587
2,RRIRYRPPRLPRPRPRPWGMPRP,-0.364
3,RRIRRRPPRLPRPRPRPPQCPRP,1.55
4,RRIRMRPPRLPRPRPRPEWFPRP,0.0369
5,RRIRERPPRLPRPRPRPGTKPRP,-0.0636
6,RRIRFRPPRLPRPRPRPTPRPRP,0.803
7,RRIRTRPPRLPRPRPRPQQPPRP,0.153
8,RRIRSRPPRLPRPRPRPNGMPRP,-0.0245
9,RRIRYRPPRLPRPRPRPPTKPRP,0.444
10,RRIRFRPPRLPRPRPRPFFWPRP,0.118
11,RRIRIRPPRLPRPRPRPETYPRP,-0.263
12,RRIRFRPPRLPRPRPRPSSNPRP,-0.715
13,RRIRLRPPRLPRPRPRPRRSPRP,-0.169
14,RRIRWRPPRLPRPRPRPHEPPRP,0.0371
15,RRIRGRPPRLPRPRPRPMMYPRP,0.163
16,RRIRHRPPRLPRPRPRPYRAPRP,-0.258
17,RRIRGRPPRLPRPRPRPKWWPRP,1.13
18,RRIRIRPPRLPRPRPRPVLTPRP,-0.0413
19,RRIRNRPPRLPRPRPRPQDKPRP,0.0859
20,RRIRARPPRLPRPRPRPNANPRP,0.49
21,RRIRTRPPRLPRPRPRPFYGPRP,-0.473
22,RRIRVRPPRLPRPRPRPSSCPRP,-0.184
23,RRIRYRPPRLPRPRPRPIRVPRP,-0.0013
24,RRIRGRPPRLPRPRPRPVKFPRP,0.326
25,RRIRGRPPRLPRPRPRPWYPPRP,-0.119

row,Sequence,shrunken log2 fold change
1,RRIRCRPPRLPRPRPRPDDNPRP,0.423
2,RRIRKRPPRLPRPRPRPHQRPRP,-0.0795
3,RRIRSRPPRLPRPRPRPDHWPRP,-0.0678
4,RRIRTRPPRLPRPRPRPAHRPRP,0.0856
5,RRIRHRPPRLPRPRPRPAAMPRP,0.191
6,RRIRPRPPRLPRPRPRPKTIPRP,-0.0767
7,RRIRERPPRLPRPRPRPFNEPRP,-0.226
8,RRIRQRPPRLPRPRPRPLNFPRP,-0.233
9,RRIRGRPPRLPRPRPRPETNPRP,1.95
10,RRIRFRPPRLPRPRPRPINDPRP,-0.241
11,RRIRWRPPRLPRPRPRPSWEPRP,-0.0924
12,RRIRGRPPRLPRPRPRPCDYPRP,0.132
13,RRIRHRPPRLPRPRPRPTNMPRP,1.96
14,RRIRSRPPRLPRPRPRPHFCPRP,-0.29
15,RRIRVRPPRLPRPRPRPATDPRP,0.132
16,RRIRCRPPRLPRPRPRPWFEPRP,-0.45
17,RRIRARPPRLPRPRPRPTWTPRP,0.425
18,RRIRFRPPRLPRPRPRPAINPRP,-0.239
19,RRIRARPPRLPRPRPRPTVPPRP,0.56
20,RRIRLRPPRLPRPRPRPEPSPRP,0.787
21,RRIRLRPPRLPRPRPRPNCNPRP,-0.535
22,RRIRYRPPRLPRPRPRPNSFPRP,-0.0457
23,RRIRTRPPRLPRPRPRPLYFPRP,-0.418
24,RRIRDRPPRLPRPRPRPEPCPRP,0.064
25,RRIRMRPPRLPRPRPRPKGFPRP,0.00502

row,Sequence,shrunken log2 fold change
1,RRIRLRPPRLPRPRPRPWIVPRP,-0.0907
2,RRIRYRPPRLPRPRPRPRQHPRP,-0.571
3,RRIRKRPPRLPRPRPRPSGTPRP,0.113
4,RRIRSRPPRLPRPRPRPHLKPRP,-0.137
5,RRIRTRPPRLPRPRPRPNNVPRP,-0.227
6,RRIRQRPPRLPRPRPRPNFVPRP,-0.0869
7,RRIRVRPPRLPRPRPRPQHYPRP,-0.718
8,RRIRARPPRLPRPRPRPSHSPRP,-0.101
9,RRIRYRPPRLPRPRPRPGNPPRP,-0.377
10,RRIRVRPPRLPRPRPRPNWGPRP,0.119
11,RRIRRRPPRLPRPRPRPRKFPRP,0.491
12,RRIRRRPPRLPRPRPRPLWWPRP,0.48
13,RRIRTRPPRLPRPRPRPCAWPRP,-0.277
14,RRIRIRPPRLPRPRPRPPSFPRP,-0.213
15,RRIRFRPPRLPRPRPRPGNRPRP,1.63
16,RRIRKRPPRLPRPRPRPHIMPRP,-0.0414
17,RRIRDRPPRLPRPRPRPITNPRP,-0.33
18,RRIRFRPPRLPRPRPRPTDLPRP,0.15
19,RRIRTRPPRLPRPRPRPIGSPRP,0.0344
20,RRIRYRPPRLPRPRPRPTRHPRP,-0.00457
21,RRIRTRPPRLPRPRPRPVHGPRP,-0.0733
22,RRIRGRPPRLPRPRPRPFADPRP,2.03
23,RRIRARPPRLPRPRPRPGDNPRP,0.133
24,RRIRCRPPRLPRPRPRPGDAPRP,0.466
25,RRIRFRPPRLPRPRPRPQNNPRP,-0.656

row,Sequence,shrunken log2 fold change
1,RRIRIRPPRLPRPRPRPHSDPRP,-0.439
2,RRIRARPPRLPRPRPRPYTWPRP,-0.428
3,RRIRMRPPRLPRPRPRPFMAPRP,-0.236
4,RRIRTRPPRLPRPRPRPWFIPRP,-0.64
5,RRIRQRPPRLPRPRPRPLLEPRP,0.105
6,RRIRRRPPRLPRPRPRPSGYPRP,-0.201
7,RRIRCRPPRLPRPRPRPNGKPRP,-0.8
8,RRIRWRPPRLPRPRPRPTAMPRP,0.814
9,RRIRPRPPRLPRPRPRPNLPPRP,-0.142
10,RRIRMRPPRLPRPRPRPLKTPRP,0.642
11,RRIRYRPPRLPRPRPRPYVIPRP,-1.19
12,RRIRMRPPRLPRPRPRPDQRPRP,-0.105
13,RRIRCRPPRLPRPRPRPGACPRP,0.257
14,RRIRARPPRLPRPRPRPDCEPRP,1
15,RRIRSRPPRLPRPRPRPIYDPRP,0.0384
16,RRIRGRPPRLPRPRPRPMCDPRP,1.07
17,RRIRQRPPRLPRPRPRPEGQPRP,-0.0666
18,RRIRCRPPRLPRPRPRPFKAPRP,-0.713
19,RRIRGRPPRLPRPRPRPPAVPRP,1.27
20,RRIRQRPPRLPRPRPRPIMQPRP,-0.0377
21,RRIRCRPPRLPRPRPRPAPGPRP,0.75
22,RRIRFRPPRLPRPRPRPKGQPRP,0.105
23,RRIRQRPPRLPRPRPRPTNPPRP,-0.175
24,RRIRWRPPRLPRPRPRPPDCPRP,-0.259
25,RRIRPRPPRLPRPRPRPRGPPRP,0.545

row,Sequence,shrunken log2 fold change
1,RRIRSRPPRLPRPRPRPPMSPRP,-0.0301
2,RRIRDRPPRLPRPRPRPMGEPRP,-6.53e-05
3,RRIRTRPPRLPRPRPRPRPYPRP,-0.223
4,RRIRHRPPRLPRPRPRPIIAPRP,-0.272
5,RRIRPRPPRLPRPRPRPHSTPRP,-0.583
6,RRIRIRPPRLPRPRPRPIFGPRP,-0.164
7,RRIRKRPPRLPRPRPRPLADPRP,0.559
8,RRIRPRPPRLPRPRPRPSWQPRP,-0.0441
9,RRIRTRPPRLPRPRPRPHCDPRP,-0.0828
10,RRIRVRPPRLPRPRPRPLNEPRP,-0.0647
11,RRIRNRPPRLPRPRPRPEKWPRP,-0.0101
12,RRIRTRPPRLPRPRPRPWGNPRP,-0.602
13,RRIRFRPPRLPRPRPRPQQLPRP,-0.437
14,RRIRARPPRLPRPRPRPQYRPRP,-0.208
15,RRIRYRPPRLPRPRPRPKVYPRP,-1.13
16,RRIRNRPPRLPRPRPRPCWWPRP,0.0782
17,RRIRDRPPRLPRPRPRPVTAPRP,0.157
18,RRIRFRPPRLPRPRPRPISSPRP,-0.0616
19,RRIRQRPPRLPRPRPRPALGPRP,0.563
20,RRIRCRPPRLPRPRPRPQCCPRP,0.254
21,RRIRHRPPRLPRPRPRPWGMPRP,-0.0998
22,RRIRDRPPRLPRPRPRPNQRPRP,-0.264
23,RRIRHRPPRLPRPRPRPNAWPRP,0.341
24,RRIRKRPPRLPRPRPRPFQIPRP,0.0332
25,RRIRGRPPRLPRPRPRPCVVPRP,0.293

row,Sequence,shrunken log2 fold change
1,RRIRFRPPRLPRPRPRPYGPPRP,-0.266
2,RRIRFRPPRLPRPRPRPYMCPRP,-0.0146
3,RRIRKRPPRLPRPRPRPYQHPRP,-0.0857
4,RRIRWRPPRLPRPRPRPVKLPRP,-0.0719
5,RRIRRRPPRLPRPRPRPQRTPRP,0.152
6,RRIRDRPPRLPRPRPRPYKLPRP,-1.01
7,RRIRSRPPRLPRPRPRPLMCPRP,-0.471
8,RRIRMRPPRLPRPRPRPLTGPRP,0.0753
9,RRIRERPPRLPRPRPRPKLRPRP,-0.0804
10,RRIRDRPPRLPRPRPRPNWTPRP,0.0279
11,RRIRVRPPRLPRPRPRPNSIPRP,0.0266
12,RRIRTRPPRLPRPRPRPYMSPRP,-0.0144
13,RRIRMRPPRLPRPRPRPVPIPRP,0.0109
14,RRIRWRPPRLPRPRPRPQFKPRP,-0.0678
15,RRIRIRPPRLPRPRPRPKKFPRP,-0.666
16,RRIRERPPRLPRPRPRPEVTPRP,-0.0794
17,RRIRTRPPRLPRPRPRPDEPPRP,-0.105
18,RRIRKRPPRLPRPRPRPKDVPRP,-0.018
19,RRIRVRPPRLPRPRPRPWAPPRP,0.0631
20,RRIRFRPPRLPRPRPRPDYMPRP,-0.432
21,RRIRKRPPRLPRPRPRPHAVPRP,0.132
22,RRIRMRPPRLPRPRPRPYYGPRP,0.0528
23,RRIRYRPPRLPRPRPRPDAAPRP,0.294
24,RRIRCRPPRLPRPRPRPFVPPRP,-0.139
25,RRIRGRPPRLPRPRPRPMFGPRP,0.39
